Experimental data reported in the supplement of paper PMC9170038.

Test system: MS2 coat protein
Test: apparent KD of MS2 coat protein; designed switch direction (-1 OFF switch, 1 ON switch): -1; higher = weaker reporter binding
Outline: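 Normalised cluster fluorescence was curve-fitted, and each design's median over clusters is its apparent KD. Before this, SNAP-549-labelled MS2 coat protein was titrated from 0.7 or 1.5 nM, doubling to 3 µM, over RNA switches transcribed on Illumina chips by stalled E. coli RNA polymerase. Titrations had no input, 200 uM small-molecule ligand, or an oligonucleotide input, and steps lasted 0.8–1.5 h (lowest) to 10–20 min (highest).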

[1] = Eterna round: R95, input ligand: FMN 200 uM
[2] = Eterna round: R95, input ligand: microRNA oligo, concentration not stated
[3] = Eterna round: R95, input ligand: none
[4] = input ligand: microRNA oligo, concentration not stated

Sequence | apparent KD of MS2 coat protein [1] [µM] | apparent KD of MS2 coat protein [2] [µM] | apparent KD of MS2 coat protein [3] [µM] | apparent KD of MS2 coat protein (input ligand: FMN 200 uM) [µM] | apparent KD of MS2 coat protein (input ligand: none) [µM] | apparent KD of MS2 coat protein [4] [µM]
AAAUAUAAGCAAAGAUCCUACAUGAGGAUCACCCAUGUGCUCGUCUUAUAAAGUACUAUCACGAAAGUGAUAGUACA [Sensor 3, v1 - 19] (puzzle: Sensor v3, turn-off variant 1) | 0.117 | 0.049 | 0.215 | – | – | –
GAAACCAGAGGAUAUGCGAAUAAAUAAAACUUUUUUUUUUAACAUGAGGAUCACCCAUGUAGAAGGCUGCAAAG [Ex2 #35] (Eterna round: R97, puzzle: Exclusion 2) | – | – | – | 0.032 | 0.031 | –
ACAUGAGGAUCACCCAUGUCAGGCUGGUCCGCUCCGGCUGUUGAGGAUAUAGCACGGUAUCCGCGCUAGAAGGUGAGGGCCGGC [Aenatbe mod 30] (Eterna round: R96, puzzle: Exclusion NG 3) | – | – | – | 0.0216 | 0.0225 | 0.018
UGGAUAAUUGGAGGAUAUGCGACAUAAACCAUUGUAGAAGGCCAACAUGAGGAUCACCCAUGUGUCCCAGAGACCACAGAUCCA [Eternabot solution 9] (Eterna round: R96, puzzle: Exclusion NG 1) | – | – | – | 0.0369 | 0.0282 | 0.0222
AGUCAGGCGGUAGGAUAUCCAAAUCGAGUGACCCUCUCAUAACAUGAGGAUCACCCAUGUCGGUGGGAGAAGGGCCGUAAGGCA [Mat - Exclusion NG 2 - Mod of JL - D64] (Eterna round: R96, puzzle: Exclusion NG 2) | – | – | – | 0.033 | 0.0309 | 0.0164
AAGUUACAUGAGGAUCACCCAUGUGAGGAUAUGAGUCAGUCACGGUGACGUGGCUGACUCAGAAGGCACAUAGG [JL-ex1-4.42 salish99 mod] (Eterna round: R97, puzzle: Exclusion 1) | – | – | – | 0.256 | 0.0771 | –
CUUAGACAUGAGGAUCACCCAUGUGAGGAUAUGAUGCGAUCGUGCUGACAUGAUCGCAUCAGAAGGCACAUAUG [JL-ex1-01 Hyphema Mod2] (puzzle: Exclusion 1) | – | 0.12 | – | – | – | –
UGAGCUUGAGGAUAUACAAGCUUGAGCUGAAAAGUUCGAGUACAUGAGGAUCACCCAUGUAGAAGGCGAGUUCG [-26.7, -25.2 kcal, A 31% 1bis and 1] (Eterna round: R97, puzzle: Exclusion 2) | – | – | – | 0.0397 | 0.026 | –
UCCACGUAAGGAUAUGGUCAUUGUGACUUGAGGAUCACCCAAGUUGUGAGCUUCCGUCACCCAGAAGGUGCAUGGU [Oratin] (Eterna round: R97, puzzle: Exclusion 5) | – | – | – | 0.216 | 0.0999 | –
AAUGAUGAUGUGAGGAUAUACAUAGUUAGACCGUAGUAGAAGGCACAUGAGGAUCACCCAUGUAGAUGUUAGGU [JR_BME4_Sub003] (puzzle: Brourd's mod of Exclusion 4) | 0.0215 | 0.0129 | 0.0144 | – | – | –
CGUACUAACACGAAAGUGUUAGUACAAUAAGCUUGUGAAACAUGAGGAUCACCCAUGUCCUCAUAAGCUCGUCUUAG [salish99_TOv2_r3_008] (puzzle: Sensor v3, turn-off variant 2) | 0.0171 | 0.388 | 0.0145 | – | – | –
AGAUUGAAUGAGGAUAUCGUUGCGGGUACGUAGCGAGAAGGCAUGACAUGAGGAUCACCCAUGUAGUGUGGGUU [JR_Ex6_Sub019] (Eterna round: R97, puzzle: Exclusion 6) | – | – | – | 0.805 | 0.336 | –
CCAUGUUAGCAGGAUAUGCAAUAAAUCUUUUAUGCAGAAGGGCUUACAUGAGGAUCACCCAUGUAUUAAGUCAA [JR_E6_Sub078] (puzzle: Exclusion 6) | 0.118 | 0.036 | 0.0499 | – | – | –
GCAUGUCUUAAGGAUAUGCCUAGGCGUGAGCCGGCAGAAGGUAAGACAUGAGGAUCACCCAUGUUUUCCUAAAA [jl-ex6-4.30 ViennaUCT mod] (Eterna round: R97, puzzle: Exclusion 6) | – | – | – | 0.28 | 0.0512 | –
UUUAUACAUGAGGAUCACCCAUGUGAGGAUAUGCUUUAUUAUUAUUAUUAUUAUUAUUGCAGAAGGUACAUUAU [LRO-Excl01-14] (Eterna round: R97, puzzle: Exclusion 1) | – | – | – | 0.0357 | 0.0377 | –
UUAAGGGACUGAGGAUAUACAUGAAUUAUUUUUGUAGAAGGCAGAUUGUUAGUUUAUUCACUAUACAUGAGGAUCACCCAUGUU [JR_ExcNG1_Sub020] (Eterna round: R96, puzzle: Exclusion NG 1) | – | – | – | – | – | 0.0183
GGCAUGCAAGGAUAUACUUACGGUGGUGUUCGAAGCUUUCUACUUGAGGAUCACCCAAGUAGAAGGUGCAUGCC [jl-ex2.4.74 ViennaUCT mod] (Eterna round: R97, puzzle: Exclusion 2) | – | – | – | 0.0187 | 0.0237 | –

Sequence | apparent KD of MS2 coat protein [1] [µM] | apparent KD of MS2 coat protein [2] [µM] | apparent KD of MS2 coat protein [3] [µM] | apparent KD of MS2 coat protein (input ligand: FMN 200 uM) [µM] | apparent KD of MS2 coat protein (input ligand: none) [µM] | apparent KD of MS2 coat protein [4] [µM]
UUUAUAUAGUAAGGAUAUGUAUUAAUUUUAUCAACAGAAGGUACUGACAUGAGGAUCACCCAUGUUUUAGUGUGGGCAUGUAGU [JMF's solution 93] (Eterna round: R96, puzzle: Exclusion NG 1) | – | – | – | 0.543 | 0.536 | 0.493
GGUGCGUAUGUGAGGAUAUGCUGGUCCUUGGAUCGGCAGAAGGCACAUGAGGAUCACCCAUGUGGUGUCGUACC [salish99_Bmod_Ex4_023] (puzzle: Brourd's mod of Exclusion 4) | – | 0.165 | – | – | – | –
UGAUCUAGCGGAGGAUAUACAUGAGGAUCACCCAUGUAGUGGUGACGUGCGUACAUGUCACCUGUGUAGAAGGCCGCUAGAUCU [JL ENG2 3.58] (Eterna round: R96, puzzle: Exclusion NG 2) | – | – | – | 0.0201 | 0.0148 | 0.00965
GGUUGGCGAGGAUAUACAUGAGGAUCACCCAUGUGAGAAAUAAAAGUGAGGAAGAAAAGUAGAAGGCGCUGACG [Mat - Exclusion 3 - Mod of Salish D3] (puzzle: Exclusion 3) | 0.189 | 0.0504 | 0.0839 | – | – | –
GAGAAGGUAGGAUAUACGAAGAAAGAGGGUAGGAAUAAGACACAUGAGGAUCACCCAUGUAGAAGGACCAAGAG [Mat - Exclusion 2 - Mod of my Tesla design - D49] (puzzle: Exclusion 2) | 0.0324 | 0.0212 | 0.0229 | – | – | –
AGUACUAACACGGAAGUGUUAGUACUAUAAGCUUGUGUUACAUGAGGAUCACCCAUGUCCUCAUAAGCUCGUCUUAU [Mat - Sensor v3 - Turn-off var 2 - D69] (puzzle: Sensor v3, turn-off variant 2) | 0.0945 | 0.087 | 0.0982 | – | – | –
GUCGUGUUAGGAUAUGGCAACUACUAAUAAAUUAGUAGUUGUUAGAAGGAACAUGAGGAUCACCCAUGUAUGAC [-23, -22.5 kcal, A 34%] (Eterna round: R97, puzzle: Exclusion 4) | – | – | – | 0.122 | 0.0399 | –
GGUAGAGAGCAGGAUAUCUUGGGUAAGUAUCGUAGAGAAGGGCUCACAUGAGGAUCACCCAUGUGGUCCUAGAU [JL Dibiri mod 04] (puzzle: Exclusion 6) | – | 0.0118 | – | – | – | –
AAUCUGUGAGGAUAUGGUGAGUAGUGCCUGAGCGCUGCUCACCAGAAGGCACAUGAGGAUCACCCAUGUAUGAC [Mat - Exclusion 4 - Mod of JL - D2] (puzzle: Exclusion 4) | – | 0.0277 | – | – | – | –
AGCUGUGGCCGAGGAUAUACAAUAACGAUGAGUGGAUUACACUCUUCGACAUGAGGAUCACCCAUGUAGAAGGCGGUCUCAGCA [Eli eng2 - 001] (Eterna round: R96, puzzle: Exclusion NG 2) | – | – | – | 0.0413 | 0.018 | 0.0146
GGUGCGUUUGUGAGGAUAUGCUGGUCCUUGGCUCAGCAGAAGGCACAUGAGGAUCACCCAUGUGGUGUCGUACC [salish99_Bmod_Ex4_033] (puzzle: Brourd's mod of Exclusion 4) | – | 0.239 | – | – | – | –
UACAUGAGGAUCACCCAUGUUUUGUCGUGUAUGGUAUUUAUCUAGGAUAUCAAUUGAUUUAUUCAUGAGAAGGAGAAUAUUAAU [JMF's solution 64] (Eterna round: R96, puzzle: Exclusion NG 3) | – | – | – | 0.0341 | 0.0398 | 0.0314
GAGCCAUCGUGAGAUGGCUAAUUUACAUGAGGAUCACCCAUGUAGGAUAUCGAUUGCUUUGCAGUCGAGAAGGACAUGUUUAAU [JL ENG3 3.98] (Eterna round: R96, puzzle: Exclusion NG 3) | – | – | – | 0.0716 | 0.0362 | 0.0283
CUGGUGUGAGGAUAUCAAAGACCUCGGGAAAGAACCGAGAAUGAGAAGGCACAUGAGGAUCACCCAUGUAACAA [Enerteon] (puzzle: Exclusion 4) | – | 0.0179 | – | – | – | –
UUCUUUACACGAGGAUAUCAUACAUGAGGAUCACCCAUGUUGCUUUGUCUGUUUUUAUGUAUUAUUGAGAAGGCGUUUUUCUUU [JR_ExcNG2_Sub076] (Eterna round: R96, puzzle: Exclusion NG 2) | – | – | – | 0.0219 | 0.0237 | 0.0197
AAACGGCAGGGAGGAUAUGCUUACCUGGGUCGUCUUCAGACAUGAGGAUCACCCAUGUAGUCGACGCAGAAGGCCCUCAAAGCC [JL ViennaUCT Ontiis mod 3] (Eterna round: R96, puzzle: Exclusion NG 2) | – | – | – | 0.413 | 0.0511 | 0.0387
